Test results as given in PMC7042382 (2020).

Target: HIV-1 Gag protein peptide on HLA-B*57:01 (human)
Assay: multimer staining

Row | Binder | binding result
1 | A16.2 (TCR) alpha TRAV4 TRAJ20 CDR3: CLVGGEDYKLSF beta TRBV4-3 TRBJ2-5 CDR3: CASSQARGGAETQYF | recognises
2 | A16.1 (TCR) alpha TRAV4 TRAJ9 CDR3: CLVGEVRGGFKTIF beta TRBV4-3 TRBJ2-5 CDR3: CASSQARGGAETQYF | recognises
